Data as given in publication PMC3939855.

B1: IRF3 (endogenous, 293T cells), Q14653 1-427 (natural protein)
chain: MGTPKPRILPWLVSQLDLGQLEGVAWVNKSRTRFRIPWKHGLRQDAQQEDFGIFQAWAEATGAYVPGRDKPDLPTWKRNFRSALNRKEGLRLAEDRSKDPHDPHKIYEFVNSGVGDFSQPDTSPDTNGGGSTSDTQEDILDELLGNMVLAPLPDPGPPSLAVAPEPCPQPLRSPSLDNPTPFPNLGPSENPLKRLLVPGEEWEFEVTAFYRGRQVFQQTISCPEGLRLVGSEVGDRTLPGWPVTLPDPGMSLTDRGVMSYVRHVLSCLGGGLALWRAGQWLWAQRLGHCHTYWAVSEELLPNSGHGPDGEVPKDKEGGVFDLGPFIVDLITFTEGSGRSPRYALWFCVGESWPQDQPWTKRLVMVKVVPTCLRALVEMARVGGASSLENTVDLHISNSHPLSLTSDQYKAYLQDLVEGMDFQGPGES
B2: IRF3 (endogenous, MEFs), P70671 1-419 (natural protein)
chain: METPKPRILPWLVSQLDLGQLEGVAWLDESRTRFRIPWKHGLRQDAQMADFGIFQAWAEASGAYTPGKDKPDVSTWKRNFRSALNRKEVLRLAADNSKDPYDPHKVYEFVTPGARDFVHLGASPDTNGKSSLPHSQENLPKLFDGLILGPLKDEGSSDLAIVSDPSQQLPSPNVNNFLNPAPQENPLKQLLAEEQWEFEVTAFYRGRQVFQQTLFCPGGLRLVGSTADMTLPWQPVTLPDPEGFLTDKLVKEYVGQVLKGLGNGLALWQAGQCLWAQRLGHSHAFWALGEELLPDSGRGPDGEVHKDKDGAVFDLRPFVADLIAFMEGSGHSPRYTLWFCMGEMWPQDQPWVKRLVMVKVVPTCLKELLEMAREGGASSLKTVDLHISNSQPISLTSDQYKAYLQDLVEDMDFQATGNI

Key:
[1] = molecular target: T1, IRF3 (endogenous, 293T cells) (human (endogenous in 293T)), Q14653; assay: native gel or EMSA; details: remark: other sources report otherwise
T1 chain: B1 chain

[2] = molecular target: T2, IRF3 (endogenous, MEFs) (mouse (endogenous in MEFs)), P70671; assay: native gel or EMSA; details: remark: other sources report otherwise
T2 chain: B2 chain

Row | Binder | stoichiometry N [1] | stoichiometry N [2]
1 | B1 | 2 | –
2 | B2 | – | 2
